Test results taken from publication PMC6224377 (2018).
Where a chain is given by its changes, count along the chain named.

B1: GK-5E1 (antibody, V domains shown)
VH: QVTLKESGGDVVQPGRSLRLSCAASGFTFRTYGMHWVRQAPGKGPEWVALIWYDGSKKYYADSVKGRFTISRDNSKNTLYLQMNSLRAEDTAVYYCVRVRFGELYFQHWGQGTLVTVSS
VL: not shown
B2: GK-1E5 (antibody, V domains shown)
VH: EVQLVESGGGVVQPGRSLRLSCAASGFTFRSYGMHWVRQAPGKGLEWVAIIWYDGSKKYYTDSVQGRFTISRDNSKNTLYLQMNSLRAEDTAVYYCARPGIAMTGLDYWGQGTLVTVSS
VL: DIQLTQSPSTLSASVGDRVTITCRASQSISSWLAWYQQKPGKAPKLLIYKASSLESGVPSRFSGSGSGTEFTLTISSLQPDDFATYYCQQYNNYWTFGQGTKVEIK
B3: GK-5A1 (antibody, V domains shown)
VH: QVQLVESGGGVVQPGRSLRLSCAASGFTFSSYGMYWVRQAPGKGLEWVAVIWNDGSNKYYADSVKGRFTISRDNSKNTLYLQMNSLRAEDTAVYYCAREGSGWYDYYYGMDVWGQGTTVTVSS
VL: B2 VL with D1E, Q3V, N93S, E104D

These binders were tested against hROR2-ECD-Twin-Strep (soluble human ROR2 extracellular domain fused to a Twin-Strep-tag) (human, UniProt Q01974 34-403) (assay: SPR).
hROR2-ECD-Twin-Strep (soluble human ROR2 extracellular domain fused to a Twin-Strep-tag), sequence (Q01974 34-403): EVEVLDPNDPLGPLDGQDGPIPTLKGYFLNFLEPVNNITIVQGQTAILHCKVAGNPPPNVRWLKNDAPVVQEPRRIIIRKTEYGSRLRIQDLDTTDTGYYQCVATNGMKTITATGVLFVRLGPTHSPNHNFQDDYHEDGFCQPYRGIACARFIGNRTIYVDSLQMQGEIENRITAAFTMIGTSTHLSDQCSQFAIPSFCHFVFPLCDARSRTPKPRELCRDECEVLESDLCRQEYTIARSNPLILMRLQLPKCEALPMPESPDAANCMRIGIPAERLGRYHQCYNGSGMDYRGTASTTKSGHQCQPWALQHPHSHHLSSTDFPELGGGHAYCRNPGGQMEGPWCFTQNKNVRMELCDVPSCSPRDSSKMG

| Kd [nM] | Binder |
| --- | --- |
| 2.5 | B1 |
| 80.7 | B2 |
| 61.3 | B3 |
